{"source": "the Immune Epitope Database (IEDB)", "details_in_all_cases": "source organism: Bacillus anthracis str. A0488", "key": {"HLA-C*12:03": {"molecular_target": "HLA-C*12:03", "assay": "IEDB peptide-MHC binding, purified MHC/direct/fluorescence; filed as Kd, often an IC50 or EC50 that approximates it; ≥ and ≤ were set here for values at or beyond the usual limits of such assays"}, "HLA-A*01:01": {"molecular_target": "HLA-A*01:01", "assay": "IEDB peptide-MHC binding, purified MHC/competitive/fluorescence; filed as Kd, often an IC50 or EC50 that approximates it; ≥ and ≤ were set here for values at or beyond the usual limits of such assays"}, "HLA-A*02:01": {"molecular_target": "HLA-A*02:01", "assay": "IEDB peptide-MHC binding, purified MHC/competitive/fluorescence; filed as Kd, often an IC50 or EC50 that approximates it; ≥ and ≤ were set here for values at or beyond the usual limits of such assays"}, "HLA-A*03:01": {"molecular_target": "HLA-A*03:01", "assay": "IEDB peptide-MHC binding, purified MHC/competitive/fluorescence; filed as Kd, often an IC50 or EC50 that approximates it; ≥ and ≤ were set here for values at or beyond the usual limits of such assays"}, "HLA-A*11:01": {"molecular_target": "HLA-A*11:01", "assay": "IEDB peptide-MHC binding, purified MHC/competitive/fluorescence; filed as Kd, often an IC50 or EC50 that approximates it; ≥ and ≤ were set here for values at or beyond the usual limits of such assays"}, "HLA-A*24:03": {"molecular_target": "HLA-A*24:03", "assay": "IEDB peptide-MHC binding, purified MHC/competitive/fluorescence; filed as Kd, often an IC50 or EC50 that approximates it; ≥ and ≤ were set here for values at or beyond the usual limits of such assays"}, "HLA-A*26:01": {"molecular_target": "HLA-A*26:01", "assay": "IEDB peptide-MHC binding, purified MHC/competitive/fluorescence; filed as Kd, often an IC50 or EC50 that approximates it; ≥ and ≤ were set here for values at or beyond the usual limits of such assays"}, "HLA-A*29:02": {"molecular_target": "HLA-A*29:02", "assay": "IEDB peptide-MHC binding, purified MHC/competitive/fluorescence; filed as Kd, often an IC50 or EC50 that approximates it; ≥ and ≤ were set here for values at or beyond the usual limits of such assays"}, "HLA-A*30:01": {"molecular_target": "HLA-A*30:01", "assay": "IEDB peptide-MHC binding, purified MHC/competitive/fluorescence; filed as Kd, often an IC50 or EC50 that approximates it; ≥ and ≤ were set here for values at or beyond the usual limits of such assays"}, "HLA-A*30:02": {"molecular_target": "HLA-A*30:02", "assay": "IEDB peptide-MHC binding, purified MHC/competitive/fluorescence; filed as Kd, often an IC50 or EC50 that approximates it; ≥ and ≤ were set here for values at or beyond the usual limits of such assays"}, "HLA-A*66:01": {"molecular_target": "HLA-A*66:01", "assay": "IEDB peptide-MHC binding, purified MHC/competitive/fluorescence; filed as Kd, often an IC50 or EC50 that approximates it; ≥ and ≤ were set here for values at or beyond the usual limits of such assays"}, "HLA-A*68:02": {"molecular_target": "HLA-A*68:02", "assay": "IEDB peptide-MHC binding, purified MHC/competitive/fluorescence; filed as Kd, often an IC50 or EC50 that approximates it; ≥ and ≤ were set here for values at or beyond the usual limits of such assays"}, "HLA-B*07:02": {"molecular_target": "HLA-B*07:02", "assay": "IEDB peptide-MHC binding, purified MHC/competitive/fluorescence; filed as Kd, often an IC50 or EC50 that approximates it; ≥ and ≤ were set here for values at or beyond the usual limits of such assays"}, "HLA-B*08:01": {"molecular_target": "HLA-B*08:01", "assay": "IEDB peptide-MHC binding, purified MHC/competitive/fluorescence; filed as Kd, often an IC50 or EC50 that approximates it; ≥ and ≤ were set here for values at or beyond the usual limits of such assays"}, "HLA-B*14:02": {"molecular_target": "HLA-B*14:02", "assay": "IEDB peptide-MHC binding, purified MHC/competitive/fluorescence; filed as Kd, often an IC50 or EC50 that approximates it; ≥ and ≤ were set here for values at or beyond the usual limits of such assays"}, "HLA-B*15:01": {"molecular_target": "HLA-B*15:01", "assay": "IEDB peptide-MHC binding, purified MHC/competitive/fluorescence; filed as Kd, often an IC50 or EC50 that approximates it; ≥ and ≤ were set here for values at or beyond the usual limits of such assays"}, "HLA-B*18:01": {"molecular_target": "HLA-B*18:01", "assay": "IEDB peptide-MHC binding, purified MHC/competitive/fluorescence; filed as Kd, often an IC50 or EC50 that approximates it; ≥ and ≤ were set here for values at or beyond the usual limits of such assays"}, "HLA-B*27:03": {"molecular_target": "HLA-B*27:03", "assay": "IEDB peptide-MHC binding, purified MHC/competitive/fluorescence; filed as Kd, often an IC50 or EC50 that approximates it; ≥ and ≤ were set here for values at or beyond the usual limits of such assays"}, "HLA-B*27:05": {"molecular_target": "HLA-B*27:05", "assay": "IEDB peptide-MHC binding, purified MHC/competitive/fluorescence; filed as Kd, often an IC50 or EC50 that approximates it; ≥ and ≤ were set here for values at or beyond the usual limits of such assays"}, "HLA-B*39:01": {"molecular_target": "HLA-B*39:01", "assay": "IEDB peptide-MHC binding, purified MHC/competitive/fluorescence; filed as Kd, often an IC50 or EC50 that approximates it; ≥ and ≤ were set here for values at or beyond the usual limits of such assays"}, "HLA-B*40:01": {"molecular_target": "HLA-B*40:01", "assay": "IEDB peptide-MHC binding, purified MHC/competitive/fluorescence; filed as Kd, often an IC50 or EC50 that approximates it; ≥ and ≤ were set here for values at or beyond the usual limits of such assays"}, "HLA-B*44:02": {"molecular_target": "HLA-B*44:02", "assay": "IEDB peptide-MHC binding, purified MHC/competitive/fluorescence; filed as Kd, often an IC50 or EC50 that approximates it; ≥ and ≤ were set here for values at or beyond the usual limits of such assays"}, "HLA-B*46:01": {"molecular_target": "HLA-B*46:01", "assay": "IEDB peptide-MHC binding, purified MHC/competitive/fluorescence; filed as Kd, often an IC50 or EC50 that approximates it; ≥ and ≤ were set here for values at or beyond the usual limits of such assays"}, "HLA-B*51:01": {"molecular_target": "HLA-B*51:01", "assay": "IEDB peptide-MHC binding, purified MHC/competitive/fluorescence; filed as Kd, often an IC50 or EC50 that approximates it; ≥ and ≤ were set here for values at or beyond the usual limits of such assays"}, "HLA-B*53:01": {"molecular_target": "HLA-B*53:01", "assay": "IEDB peptide-MHC binding, purified MHC/competitive/fluorescence; filed as Kd, often an IC50 or EC50 that approximates it; ≥ and ≤ were set here for values at or beyond the usual limits of such assays"}, "HLA-B*57:01": {"molecular_target": "HLA-B*57:01", "assay": "IEDB peptide-MHC binding, purified MHC/competitive/fluorescence; filed as Kd, often an IC50 or EC50 that approximates it; ≥ and ≤ were set here for values at or beyond the usual limits of such assays"}, "HLA-B*58:01": {"molecular_target": "HLA-B*58:01", "assay": "IEDB peptide-MHC binding, purified MHC/competitive/fluorescence; filed as Kd, often an IC50 or EC50 that approximates it; ≥ and ≤ were set here for values at or beyond the usual limits of such assays"}}, "data": [{"sequence": "FVMPIFEQI", "values": [{"measurement": "Kd", "setting": "HLA-C*12:03", "result": 0.068, "unit": "µM"}, {"measurement": "Kd", "setting": "HLA-A*01:01", "result": "≥ 5", "unit": "µM"}, {"measurement": "Kd", "setting": "HLA-A*02:01", "result": "≥ 5", "unit": "µM"}, {"measurement": "Kd", "setting": "HLA-A*03:01", "result": "≥ 20", "unit": "µM"}, {"measurement": "Kd", "setting": "HLA-A*11:01", "result": "≥ 5", "unit": "µM"}, {"measurement": "Kd", "setting": "HLA-A*24:03", "result": 0.0032, "unit": "µM"}, {"measurement": "Kd", "setting": "HLA-A*26:01", "result": "≥ 20", "unit": "µM"}, {"measurement": "Kd", "setting": "HLA-A*29:02", "result": "≥ 5", "unit": "µM"}, {"measurement": "Kd", "setting": "HLA-A*30:01", "result": "≥ 5", "unit": "µM"}, {"measurement": "Kd", "setting": "HLA-A*30:02", "result": "≥ 5", "unit": "µM"}, {"measurement": "Kd", "setting": "HLA-A*66:01", "result": "≥ 5", "unit": "µM"}, {"measurement": "Kd", "setting": "HLA-A*68:02", "result": 0.0003, "unit": "µM"}, {"measurement": "Kd", "setting": "HLA-B*07:02", "result": "≥ 5", "unit": "µM"}, {"measurement": "Kd", "setting": "HLA-B*08:01", "result": "≥ 5", "unit": "µM"}, {"measurement": "Kd", "setting": "HLA-B*14:02", "result": "≥ 5", "unit": "µM"}, {"measurement": "Kd", "setting": "HLA-B*15:01", "result": "≥ 20", "unit": "µM"}, {"measurement": "Kd", "setting": "HLA-B*18:01", "result": "≥ 20", "unit": "µM"}, {"measurement": "Kd", "setting": "HLA-B*27:03", "result": "≥ 20", "unit": "µM"}, {"measurement": "Kd", "setting": "HLA-B*27:05", "result": "≥ 5", "unit": "µM"}, {"measurement": "Kd", "setting": "HLA-B*39:01", "result": "≥ 20", "unit": "µM"}, {"measurement": "Kd", "setting": "HLA-B*40:01", "result": "≥ 5", "unit": "µM"}, {"measurement": "Kd", "setting": "HLA-B*44:02", "result": "≥ 5", "unit": "µM"}, {"measurement": "Kd", "setting": "HLA-B*46:01", "result": "≥ 20", "unit": "µM"}, {"measurement": "Kd", "setting": "HLA-B*51:01", "result": "≥ 20", "unit": "µM"}, {"measurement": "Kd", "setting": "HLA-B*53:01", "result": "≥ 5", "unit": "µM"}, {"measurement": "Kd", "setting": "HLA-B*57:01", "result": "≥ 20", "unit": "µM"}, {"measurement": "Kd", "setting": "HLA-B*58:01", "result": "≥ 5", "unit": "µM"}]}]}
